Data from the nanobody polyreactivity screen of Harvey et al. (2022).

Assay: yeast display, Sf9 membrane polyspecificity reagent, FACS + sequencing; frameworks hold sequencing errors
Outline: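 Synthetic nanobody libraries on Saccharomyces cerevisiae BJ5465 were galactose-induced for 36–48 hours, stained 1 hour at 4 °C with 10% biotinylated, detergent-solubilized Sf9 membrane reagent and enriched on streptavidin microbeads. FACS then separated cells into low and high (top ~1%) gates by anti-HA (expression) and streptavidin (reagent binding) fluorescence. Genes were colony-PCR amplified, MiSeq 2 × 250 sequenced and CDR-length filtered. A clone's polyreactivity label is that of its gate of origin.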
For “QVQLVESGGGLVQAGGSLRLRCAASGSIFQPYAMGWYRQAPGKERELVAAITNGGSTYYADSVKGRFTISRDNATNTVYLQMNSLKPEDTAVYYCAADVQSSHEYDYWGQGTQVTVSS”, the “polyreactivity (PSR sort gate)” value was “low polyreactivity”. With “QVQLVESGGGLVQAGGSLRLRCAASGSIFQSNAMGWYRPAPGKESELVAAISSSGVRTYYADSVKGRFTISRDNAKNTVYLQMNSLKPEDTAVYYCATGWYYAGGPTYEYYYWGQGTQVTVSS” the “polyreactivity (PSR sort gate)” value was “low polyreactivity”. In the case of “QVQLVESGGGLVQAGGSLRLRCAASGSIFSSNAMGWYRQAPGKERELVAAITSGGSTYYADSVKGRFTISRDNAKHTVYLQMNSLKPEDTAVYYCAADDWGDGVYKLDYWGQGTQVTVSS”, the “polyreactivity (PSR sort gate)” value is reported as “low polyreactivity”. In the case of “QVQLVESGGGLVQAGGSLRLRCAASGSIFTSYALGWYRQAPGKERELVAAINGSGGSTFYADSVKSRFTISRDNAKYTFYLQMNSLKPEDTAVYYCNTGGPRGTTYDFWGLGTQVTVSS”, the “polyreactivity (PSR sort gate)” value is reported as “low polyreactivity”. With “QVQLVESGGGLVQAGGSLRLRCAASGSIFWRNAMGWYRQAPGKERELVAPISGNGGTTYYADSVKGRFTISRENAKNTVFLQMNSLKPEHTAVYYCPKVGKTYRTYEYWGQGTEVTVSS” the “polyreactivity (PSR sort gate)” value was “high polyreactivity”. With “QVQLVESGGGLVQAGGSLRLRCAASGSIFYFYAMGWYRQAPGQEREFVAAITRSGGRTYYADSVKGRFTISRDNAKNTVYLQMNSLKPEDTAVYYCDAVPYDKRKGDYWGQGTQVTVSS” the “polyreactivity (PSR sort gate)” value was “high polyreactivity”. In the case of “QVQLVESGGGLVQAGGSLRLRCAASGSIITRYAMGWYRQAPGKERDLVAAITASGGRTYYADSVKGRFTISRDNAKNTVYFQMNSLKPEDTAVYYCNTFWRYTSQLPYDYWGQGTQVNVSS”, the “polyreactivity (PSR sort gate)” value is reported as “high polyreactivity”. For “QVQLVESGGGLVQAGGSLRLRCAASGSNFVSYAMGSYRQAPGKERELVATITTSTGSTYADSVKGRFTISRDNAKNTVYLLMYSLKPEDTAVYYCAARYLPWLKYDFDSWGQGTQVTVSS”, the “polyreactivity (PSR sort gate)” value was “low polyreactivity”. In the case of “QVQLVESGGGLVQAGGSLRLRCAASGSTFDGNAMGWYRQAPGKETELVAAITSGGSTNYADSVKGRFTISRDNANNTVYFQMYSLKPEDTAVYYCAAYTVSFSILYDYWGQGTQVTLSS”, the “polyreactivity (PSR sort gate)” value is reported as “low polyreactivity”. With “QVQLVESGGGLVQAGGSLRLRCAASGSTFGGYAMGWYRQAPGKERELVAAIANGDRTNYADSVKGRFIISRDNAKNTVYLQMNSLKPEDTAVYYCNKDGPSYSSYDNWGQGTQVTVSS” the “polyreactivity (PSR sort gate)” value was “low polyreactivity”. With “QVQLVESGGGLVQAGGSLRLRCAASGSTFGYYSMGWYRQAPGKEMELVAAISKSGGRTYYADSVKGRFTISRDTAKNTVYVQMNSLKPEDTAVYYCNKANGGDEVDYWGQGTQVTVSS” the “polyreactivity (PSR sort gate)” value was “high polyreactivity”. For “QVQLVESGGGLVQAGGSLRLRCAASGSTFTKNAMGWYRQAPGKERELVAAISFTTGRTYYADSVKGRFTISRDNAKNTVYLQMNSLKPEDTAVYYCNKVYARSEQRGPVAGNYWGQGTQVTVSS”, the “polyreactivity (PSR sort gate)” value was “high polyreactivity”. With “QVQLVESGGGLVQAGGSLRLRCAASGSTILYYAMGWYRQAPGKERELVADIDWSGDSTYYADSVKRRFRISRDNAKNTVYFQMNSLKPEDTAVYYCAATQYYPVPYDYWGQGTQVTVSS” the “polyreactivity (PSR sort gate)” value was “low polyreactivity”. For “QVQLVESGGGLVQAGGSLRLRCAASGSTSAYYAMGWYRQAPGKERELVAAISWSGGRTYSADSVKGRFTISRDNAKNTVYLQMNSLKPEDTAVYYCAARFWFTKGYDYWGQGTQVTVSS”, the “polyreactivity (PSR sort gate)” value was “high polyreactivity”. For “QVQLVESGGGLVQAGGSLRLRCAASGTTFSDNAMGWYRQAAGKERELVAAITSGGSTYYADSVKGRFTISRDNAKNTVYLQMNSLKPEDTAVYYCAADYWGQGTQVTVSS”, the “polyreactivity (PSR sort gate)” value was “low polyreactivity”. In the case of “QVQLVESGGGLVQAGGSLRLRCADSGFTLDVYAMGWYRQAPGKERELVAATSRSAGSTYYADSVKGRFTSSRDNAKNTVYLQMNSLKPEETDVYYCGARYPPRFGVVRGYSYYHTSTYSWGQGTQVTVSS”, the “polyreactivity (PSR sort gate)” value is reported as “high polyreactivity”. In the case of “QVQLVESGGGLVQAGGSLRLRGAASGNTIRYYAMGWYRQAPGKERELVAAINSRGGTTSYADSVKGRFTISRDNAKNTVYLQMNSLKPEDTAVYYCNKYIRYPFKRYGYWGQGTQVTVSS”, the “polyreactivity (PSR sort gate)” value is reported as “high polyreactivity”. With “QVQLVESGGGLVQAGGSLRLRSAASGRTFVPYHMGCYRQAPGKERELVADISSGDSTNYTDSVKGRFTISRDNAKNTVYLQMNSLKPEDTAVYFCAADLTYTMDHWGLGTQVTVSS” the “polyreactivity (PSR sort gate)” value was “low polyreactivity”. With “QVQLVESGGGLVQAGGSLRLRSAATGRTYRLYAMGWYRQAPGKERELVAAITRGGRTNYADSVKGRFTISRDNAKNTVYLEMNSLKPEDTAVYYCAARYRLPIPGTQYEYWGQGTQVTVSS” the “polyreactivity (PSR sort gate)” value was “low polyreactivity”. For “QVQLVESGGGLVQAGGSLRLSCAAAGFIFQYNGMGWYRQAPGKERELVAAITSSVNTYYADSVKGRFTISRDNAKNTVYLQMNSLKPEDTAVYYCNADDPDKSWGQGTQVTVSS”, the “polyreactivity (PSR sort gate)” value was “low polyreactivity”. In the case of “QVQLVESGGGLVQAGGSLRLSCAAAGIIFTGYAMGWYRQAPGKERELVAAITASGGRTYYADSVKGRYTISRDNAKNTVYLQMNSLKPEDTAVYYCNAVPTVLRVLKYDYWGQGTQVTVSS”, the “polyreactivity (PSR sort gate)” value is reported as “high polyreactivity”. In the case of “QVQLVESGGGLVQAGGSLRLSCAAAGIISPFYAMGWYRQAPGKERELVADISTGGTTTYADSVKGRFTISRDNAKNTVYLQMNSLKPVDTAVYYCNAEVCLTYYWIVWASYDYWGQGTQVTVSS”, the “polyreactivity (PSR sort gate)” value is reported as “low polyreactivity”. In the case of “QVQLVESGGGLVQAGGSLRLSCAAAGLISIRILMGWYRQAPGKERELVAGITSTGSTSYADSVKGRFTSSRDNAKNTVYLQMNSLKPEDTAVYYCNTKGSRPGIWPTTSGYWGHGTQVTVSS”, the “polyreactivity (PSR sort gate)” value is reported as “high polyreactivity”. In the case of “QVQLVESGGGLVQAGGSLRLSCAAAGNTIRVNAMGWYRHAHGKERELVAAISFSGGRTYYADSVKGRFTISRDNAKNTVYLQMNSLKPEDTAVYYCAALRRYPRPNIYGYWGQGTQVTVSS”, the “polyreactivity (PSR sort gate)” value is reported as “low polyreactivity”. In the case of “QVQLVESGGGLVQAGGSLRLSCAAAGRTFYNYAMGWYRQAPGKERELVAAIDWGSDSTYYADSVKGRFTISRDNAKNTVYLQMNSLKPEDTAVYYCAKRPKNKPVLGDYDHWGQGTQVTVSS”, the “polyreactivity (PSR sort gate)” value is reported as “low polyreactivity”. With “QVQLVESGGGLVQAGGSLRLSCAAAGSTFRYNDMGWYRQAPGKERELVAAITRSGGSTYYADSVKGRFTISRDTAKNTVYLQMNSLKPEDTAVYYCNRGLRYVLAEDIAVPRVPEYYWGQGTQVTVSS” the “polyreactivity (PSR sort gate)” value was “low polyreactivity”. For “QVQLVESGGGLVQAGGSLRLSCAACGFIFYINTMGWYRQAPGKERELVAAISQSGVGTSYADSVKGRFTISRDNAKNTVYLQMNSLKPEDTAVYDCATDFARSDVVDRFAYWRQGTQVTVSS”, the “polyreactivity (PSR sort gate)” value was “low polyreactivity”. For “QVQLVESGGGLVQAGGSLRLSCAACGFSFWRNAMGRTRRAPGKDRELVAAISASGGSTYYADSVKGRFTISRDNATNTVFLQRNSLKPEDTAVYYCAADTQGFYRYDYWGQGTQVTVSS”, the “polyreactivity (PSR sort gate)” value was “low polyreactivity”. With “QVQLVESGGGLVQAGGSLRLSCAACGRTFFPYAIGWYRQAPGKERELVAAITTGDITNYADSVKGRFTISRDNAKNTVYLQMNSLKPEDTAVNYCAARGYASWSYGGYPLKLDYWGQGTQVTVSS” the “polyreactivity (PSR sort gate)” value was “low polyreactivity”. With “QVQLVESGGGLVQAGGSLRLSCAACGSIVVGYAMGWYRQAPGKERELVAVITSDGSTNYADSVKGRFTISRDNAKHTVYLPMNSLKPEDTAVYYCAADPWLGTGRYDYWGQGTQVTVST” the “polyreactivity (PSR sort gate)” value was “low polyreactivity”. For “QVQLVESGGGLVQAGGSLRLSCAACGTIFRRYATGSYRQAPGKERELVAAISSGGSTYADSVKGRFTISRDNAKNTVYFQMNSLKPEDTAVYYCAAYYQLGRHPGTPNGYDYWGHGTQVTVSS”, the “polyreactivity (PSR sort gate)” value was “low polyreactivity”. With “QVQLVESGGGLVQAGGSLRLSCAACVFIFSRYAMGWYRQAPGKERELVAAISRGGSTNYADSVKGRFTISRDNAKNTVYLQMNSLKPEDTAVYYCAVRQNVRYYYWGQGTQVTVSS” the “polyreactivity (PSR sort gate)” value was “high polyreactivity”. In the case of “QVQLVESGGGLVQAGGSLRLSCAAPGSIFYPNAMGWYRQAPGKEREFVAAITKRGGSTYYADSVKGRFTISRDNAKNTVYLQMNSLKPEDTAVYYCAGERSYPRAGRYNYWGQGTQVTVSS”, the “polyreactivity (PSR sort gate)” value is reported as “low polyreactivity”. For “QVQLVESGGGLVQAGGSLRLSCAASAFIFISYAMGLYRQAAGKERELVAAISSSGVSTYSADSVKGRFTISRDNAKNTVYLQMNSLKPEDTAVYYCAARQQVRLRQGPLYYYWGQGTQVTVSS”, the “polyreactivity (PSR sort gate)” value was “high polyreactivity”. In the case of “QVQLVESGGGLVQAGGSLRLSCAASAFIFSGNAMGWNRQAPGKERELVAAISGRGGRTYYADSVKGRFTISRDNAKNTVYLQMNSLKPEDTAVYYCAADNPYLGRKFDYWGQGTQVTVSS”, the “polyreactivity (PSR sort gate)” value is reported as “high polyreactivity”. In the case of “QVQLVESGGGLVQAGGSLRLSCAASAFTFRYNAMGWYRQAPGKERELVATIDWSGGRTYYADSVKGRFTISRDNAKNTVYLQMNSLKPEDTAVYYCNAAALFRYYVRWKSAYDYWGQGTQVTVSS”, the “polyreactivity (PSR sort gate)” value is reported as “high polyreactivity”. With “QVQLVESGGGLVQAGGSLRLSCAASAFTLLSYAMGWYRQAPGKDRELVASITQRGGSTYYADSVKGRFTISRDNAKNTVDLQMNSLKPEDTAVYYCAARSGYGYRYYYWGQGTQVTVSS” the “polyreactivity (PSR sort gate)” value was “low polyreactivity”. With “QVQLVESGGGLVQAGGSLRLSCAASAGIFRYYAMGWYRQAPGKERELVAAITSSGTSTYYADSVKGRFTISRDNAKNTVYLQMNSLKPEDTAVYYCAATRTKRKFDYWGQGTQVTVSS” the “polyreactivity (PSR sort gate)” value was “high polyreactivity”. In the case of “QVQLVESGGGLVQAGGSLRLSCAASAIIFAQYTMGWNRQAPGKERELVAAINRNGGSTYYADSVKGRFTISRDNAKNTVYLQMNSLKPEDTAVYYCNADALGFRYDYWGQGTQVTVSS”, the “polyreactivity (PSR sort gate)” value is reported as “low polyreactivity”. With “QVQLVESGGGLVQAGGSLRLSCAASAITFFNNAMGWYRPATGKERELVADITYSGSTYYADSVKGRFTISRDNAQNSVYLQMNSLKPEDTAVYYCSAGHAYDYFVYYPDDYWGQGTQVTVSS” the “polyreactivity (PSR sort gate)” value was “low polyreactivity”. With “QVQLVESGGGLVQAGGSLRLSCAASAITYAYYPMGWYRQAPGKETELVAGITDVGSTNYADSVKGRFTLSRDNAKNTVYLQMNSLKPEDTAGYYCAAEYDGPYYSFYPEQRYYWGQGTQVTVSS” the “polyreactivity (PSR sort gate)” value was “low polyreactivity”. In the case of “QVQLVESGGGLVQAGGSLRLSCAASARIQDKYARGWYRQAPGKERELVARIRFSGGDTYADSVKGRFTISRDNAKNTVYLQMNSLKPEDTAVYYCNKDRRNRWYAFDYWGQGTQVTVSS”, the “polyreactivity (PSR sort gate)” value is reported as “low polyreactivity”. With “QVQLVESGGGLVQAGGSLRLSCAASARNFYANVMGWYRQAPGKEREFVAAIRWSGGRTYYADSVKGRFTISRDNAKNTVYLQMNSLKPEDTAVYYCAADPWDYISYYIYDYWGQGTQVTVSS” the “polyreactivity (PSR sort gate)” value was “low polyreactivity”.
